Assay results from paper PMC8932546 (The Journal of Experimental Medicine, 2022).

Molecular target: YU2 gp120 (HIV-1 clade B, isolate YU2, UniProt P35961)
Assay: ELISA

Sequence of YU2 gp120 (P35961 whole entry, looked up): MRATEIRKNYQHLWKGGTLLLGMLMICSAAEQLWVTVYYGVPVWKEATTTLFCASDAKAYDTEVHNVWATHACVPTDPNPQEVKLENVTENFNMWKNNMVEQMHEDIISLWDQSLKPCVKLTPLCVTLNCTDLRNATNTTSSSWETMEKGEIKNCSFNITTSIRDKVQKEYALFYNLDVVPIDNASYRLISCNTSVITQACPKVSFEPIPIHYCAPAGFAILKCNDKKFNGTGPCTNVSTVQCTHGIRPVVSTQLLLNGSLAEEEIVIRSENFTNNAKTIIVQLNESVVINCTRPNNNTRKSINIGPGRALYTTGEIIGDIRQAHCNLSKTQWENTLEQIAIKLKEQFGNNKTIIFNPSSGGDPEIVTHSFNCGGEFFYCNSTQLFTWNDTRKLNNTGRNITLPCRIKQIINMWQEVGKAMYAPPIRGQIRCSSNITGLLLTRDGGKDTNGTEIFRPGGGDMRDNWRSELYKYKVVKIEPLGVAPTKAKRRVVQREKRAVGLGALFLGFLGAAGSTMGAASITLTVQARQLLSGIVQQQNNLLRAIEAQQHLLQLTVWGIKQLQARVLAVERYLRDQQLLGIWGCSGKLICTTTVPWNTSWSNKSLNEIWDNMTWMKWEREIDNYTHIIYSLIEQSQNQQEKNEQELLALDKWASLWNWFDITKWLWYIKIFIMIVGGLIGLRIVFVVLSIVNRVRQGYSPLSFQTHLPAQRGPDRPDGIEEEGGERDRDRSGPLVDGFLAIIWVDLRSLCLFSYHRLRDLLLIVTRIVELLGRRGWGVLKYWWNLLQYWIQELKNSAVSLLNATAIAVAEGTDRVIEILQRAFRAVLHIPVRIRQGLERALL

B1: BG18 IgG (antibody, V domains shown)
VH: QVQLRESGPGLVKPSETLSLSCTVSQDSRPSDHSWTWVRQSPGKALEWIGDIHYNGATTYNPSLRSRVRIELDQSIPRFSLKMTSMTAADTGMYYCARNAIRIYGVVALGEWFHYGMDVWGQGTAVTVSS
VL: SSELTQPPSVSVSPGQTARITCSGAPLTSRFTYWYRQKPGQAPVLIISRSSQRSSGWSGRFSASWSGTTVTLTIRGVQADDEADYYCQSSDTSDSYKMFGGGTKLTVL
binding result: binds

B2: 7-269 expressed as recombinant IgG (antibody, V domains shown)
VH: QMQLVESGGGVVQPGRSLRLSCAASRFDFNRFGMHWVRQAPGKGLEWVAYMSYDGGDRYYADSVKGRFTISRDNSKSTLHLQMDSLRPEDTAVYYCAKDDILGDCSTSHCYWGYYYQGMDVWGHGTTVTVSS
VL: EIVMTQSPDTLSVSPGERVTLSCRASQSVGSNLVWYQQKPGQSTRVLIYGASTRAATVPARFSGGGSGTEFTLTISSVQSEDFAVYYCYHYNNWPRGSFGQGTKLEIK
binding result: binds

B3: 10-1074 IgG (antibody, V domains shown)
VH: QVQLQESGPGLVKPSETLSVTCSVSGDSMNNYYWTWIRQSPGKGLEWIGYISDRESATYNPSLNSRVVISRDTSKNQLSLKLNSVTPADTAVYYCATARRGQRIYGVVSFGEFFYYYSMDVWGKGTTVTVSS
VL: LSVALGETARISCGRQALGSRAVQWYQHRPGQAPILLIYNNQDRPSGIPERFSGTPDINFGTRATLTISGVEAGDEADYYCHMWDSRSGFSWSFGGATRLTVL
binding result: binds
